The results in this text go back to patent publication US20150266975, “RNA-SPECIFIC BINDING ANTIBODY” (Korea Advanced Institute of Science and Technology, published 2015).

As a reminder, the Kd is a measure of binding affinity in units of concentration. The low end stands for a tighter complex, the high end for a looser complex.

The target in this data set is T1, MabBC200-A3 (Homo sapiens).
T1 chain 1: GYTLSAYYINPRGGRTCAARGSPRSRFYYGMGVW
T1 chain 2: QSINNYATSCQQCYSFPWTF
As to the kind of experiment: filter; room temperature. Particulars: hairpin with internal loops.

B1: RNA (51-120) (ssRNA)
RNA: GGGAGGCGGGAGGAUAGCUUGAGCCCAGGAGUUCGAGACCUGCCUGGGCAAUAUAGCGAGACCCCGUUCUCCC
The molecule B1 returned a Kd of roughly 10 nM.
